Biological target: Rhs2 C-terminal toxin domain (Rhs2CT), His6 tag removed, as in the Rhs2CT-RhsI2-EF-Tu complex (Serratia marcescens Db10)
Test: SEC

Substance	stoichiometry N
E. coli elongation factor thermo-unstable (EF-Tu) (from UniProt P0CE47 1-394) (natural protein)	1
RhsI2 immunity protein, untagged (natural protein)	1

— doi:10.1101/2025.10.28.685041
